Target: BIQ, fluorescent reporter containing an IQ domain sequence derived from neuromodulin (UniProt P17677)
Experiment: other fluorescence titration

Sequence of BIQ, fluorescent reporter containing an IQ domain sequence derived from neuromodulin (P17677 31-60): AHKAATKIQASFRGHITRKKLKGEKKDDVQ

stoichiometry N: 1
Substance: calmodulin (native vertebrate CaM) (from UniProt P0DP23 1-149) (natural protein)

— article PMC2791412
